Values of other authors as cited in paper PMC5808296.
Read-outs that look alike come from different tables or passages of the source.

Legend:
[1] = target: Aβ42 Aβ1-42 (Mus musculus) (UniProt P12023)
[2] = target: Aβ42 Aβ1-42 (Mus musculus) (UniProt P12023); remark: listed apart in the source

| Kd [1] [nM] | Kd [2] [nM] | Substance |
| --- | --- | --- |
| 0.545 |  | C-FRHMTEQ-C peptide |
|  | 0.22 | C-IPLPFYN-C peptide |
